Measured values published in the nanobody polyreactivity screen of Harvey et al. (2022).

Experiment: yeast display, Sf9 membrane polyspecificity reagent, FACS + sequencing; frameworks hold sequencing errors
In short: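 Galactose induction of a Saccharomyces cerevisiae BJ5465 synthetic nanobody display library ran 36–48 hours. The cells were then stained for 1 hour at 4 °C with 10% biotinylated, detergent-solubilized Sf9 membrane reagent, pulled down on streptavidin microbeads and FACS-sorted into low and high (top ~1%) gates on expression and reagent-binding fluorescence. Labels for polyreactivity follow the gate of origin.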

Row | Sequence | polyreactivity (PSR sort gate)
1 | QVQLVEAGGGLVQAGGSLRLSCAASGSTFRRYAMGWYRQAPGKERVLVAAITTRGGSTYYADSVKGRFTISRDNAKNTVYLQMNSLKPEDTAVYYCARDYSTYLRTAGDYWGQGTQVTVSS | low polyreactivity
2 | QVQLVEAGGGLVQAGGSLRLSCGASGFTFVYYAMGWYRQAPGKERELVAAISRSGGSTYYADSVKGRFTISRDNAKNTVYVQMNSLKPEDTAVYYCAARKNYGSRLSYEYWGQGTQVTVSS | high polyreactivity
3 | QVQLVEARGGLVQAGGSLRLSCAASGSILRYTMGWYRPAPGKERELVAAITRSGTSTYYADSVKGRFTISRDNAKNTVYLQMNSLKPEDTAVYYCAAREKYASHEYDYWGQGTQVTVSS | high polyreactivity
4 | QVQLVEPGGGIVQAGGSLRLSCAASGYIFYNYAMGWYRQAPGKERELVAAITSGGSTYYADSVKGRFTISRDNAKNTVYFQMNSLKPEDTAVYYCAAYLFPAYSRISNDYWGQGTQVTVSS | high polyreactivity
5 | QVQLVESAAGLFQAGGRLRLSCAASGRICGFYAKGWYTQAPGKQRDLVAAITVSGSSTRYADSVKGRFTISRDNAKNTVYLQMNSLKPEDTAVYYCAARIRAKYSYGYWGQVTQVTVSS | high polyreactivity
6 | QVQLVESAAGLVQAGGSLRISCAASGYTFWLYAMGWYRQAPGKEREFVAAISTSGGSTYADSVKGRFTISRDNAKNTVYLQMNSLKPEDTAVYYCNAGYLLYYDYHLFYWGQGTQVTVSS | low polyreactivity
7 | QVQLVESAAGLVQAGGSLRLSCAASGFTFSFYTMGWYRQAPAKDRELVAAISSGGTPYYADSVKGRFTISRDNAKNTVYLQMNSLKPEDTAVYYCAAYGRYASWIEFYSNYDYWGQGTQVTVSS | low polyreactivity
8 | QVQLVESAAGLVQAGGSLRLSCAASGSIFSYYAMGWSRQAPGKERELVAAITGRGGNTYYADSVKGRFTISRDNAKNTVYLQMNSLKPEDTAVDYCAKDYFGWYDVETPYDYWGQGTQVTVSS | low polyreactivity
9 | QVQLVESAAGLVQAGGSLRLSCPASGITFYYYAKGWYRQEPGKESELVAAISGGGDSTYYADSVKGRFTISRDNAKNTVYLQMNSLKPEDTAVYYCAAGQDYWVPDDSLFYYWGQGTQVTVSS | low polyreactivity
10 | QVQLVESAAGLVQAGGSLRLTCDGSGTTFPGYAMGWYRPEPGNERELVAAGGSTYYADSVKGRFTISRDNAKNTVYFQMNCLKPVETAGYYCAASWGSFQKGTYYYWGQGTQVTVSS | low polyreactivity
11 | QVQLVESAAGLVQAVGSLRLSCAPSGITFYDYTMGWYRQAPGKERELVAAITSSGVSTYYADSVKGRFTISRDNAKNTVYLQMNSLKPEDTAVYYCATDAWSVYSYLAFTYDYWGQGTQVTVSS | low polyreactivity
12 | QVQLVESAGALVQAGGRLRLSCAASGRTFRKYAMGWYRQAPGTERELVAAISWSGGSTYYANSVKGRFTISRDNAKNTVYLQMNSLKPEDTAVYYWAAVPVHTGSLYWGFTTGYDYWGQGTQVTVSS | low polyreactivity
13 | QVQLVESAGGIVQAGGSLRLSCAASGFTFTGYAMGWYRQAPGKEREMVAAINARGTSTYYADSVKGRFTISRDNAKNTVYLQMNSLKPEDTAVYYCNREGRSVSGYYYYWGQGTQVTVSS | high polyreactivity
14 | QVQLVESAGGIVQAGGSLRLSCAASGSTFGVYAMGLYRQAPGKERELVASISSGDSTTYADSVKGRFTISRDNAKNTVYFQMNSLKPDVTAVYYCNAVYYTGYYWGHGTQVTVSS | low polyreactivity
15 | QVQLVESAGGLVQAGGRLRLSCAASGFIFYRYAMGWYRQAPGKERELVAAISRNGGSTYYADSVKGRFTISRDNAKNTVYLQRNILKPEDTAVYYCNVDYRLVRIRVDYEYWGQGTQVTVSS | high polyreactivity
16 | QVQLVESAGGLVQAGGRLRLSCAASGFTFRYYAMGWYRQAPGKERELVATITPGGSTNYADSVKGRFTISRDNAKNTVYLEMNSLKPEDTAVYYCAASLYRVIAFGYWGQGTQVTVSS | high polyreactivity
17 | QVQLVESAGGLVQAGGRLRLSCAASGSTFSYYAMGWYRQAPGKEREWVAAISRSGGSTYYADSVKGRFTISRDNAKNTVYLQLNSLKPDDTAVYYCNRYYYTVTREFDYWGQGTQVTVSS | low polyreactivity
18 | QVQLVESAGGLVQAGGSLPLSCAASGSTFASNTMGWYRQAPGKERELVAAITQSGGTTYYADSVKGRFTISRDNAKNTVSLQMNSLKPEDTAVYYCATDVGYFYTVVGGYDYWGTGTQVTVSS | low polyreactivity
19 | QVQLVESAGGLVQAGGSLRLICAASGGTFSTYAIGWYRQAPGKEREFVAAITRSGTSTYYADSVKGRFTISRDNAKNTVYLQMNGLNPEDTAVYYCAAGVYSFRYDYWGQGTQVTVSS | low polyreactivity
20 | QVQLVESAGGLVQAGGSLRLSCAASASTFTNYVMGWYRQAPGKERELVAAITKSGGSTYYADSVKGRYTISRDNAKNTVYLQMNRLKPEDTAVYYCAARRTTEFGYWGQGTQVTVSS | high polyreactivity
21 | QVQLVESAGGLVQAGGSLRLSCAASGFIFGKNAMGLYRQAPGKERELVAVITRSGSRTYYADSVKGRLTISRDNAKNTVYLQMNSLKPEDTAVYYCATDNVYAYDYWGLGTQVTVSS | high polyreactivity

Row | Sequence | polyreactivity (PSR sort gate)
22 | QVQLVESAGGLVQAGGSLRLSCAASGFIFHRYAMGWYRQAPGKERELVAAITGRGSSTYYADSVKGRFTISRDNAKNTVYLQMNSLKPEDTAVYYCNAYRYQVYDTGWFGYWGQGTQVTVSS | high polyreactivity
23 | QVQLVESAGGLVQAGGSLRLSCAASGFIFRNYAMGWYRQEHGKERELVAAISRRGGSTYYADSVKGRFTISRDNAKNTVYLQMNSLKPEDTAVYYCAADYYYSSRIEYYYWGQGTQVTVSS | high polyreactivity
24 | QVQLVESAGGLVQAGGSLRLSCAASGFIFVKYAMGWDRQAPGKERELVAAISSRGGITYYADSVKGRYTISRDNAENTVYLQMISLKPADTAVYYCNTVSRGYRGNYWGQGTQVTVSS | low polyreactivity
25 | QVQLVESAGGLVQAGGSLRLSCAASGFIFVKYVMGWYRQEPGKERELVATISNGVSTNYADSVKGRFTISRDNAKNTVYLQMNSLKPEDTAVYDCNTGSNAWYFSGDYWGQGTQVTVSS | low polyreactivity
26 | QVQLVESAGGLVQAGGSLRLSCAASGFTFGWYAMGWYRQAPGKERELVAAISSTGGRTYYADSVKGRFTISRDNAKNTVYLQMNSLKPEDTAVYYCAAAYSYGTEYGYWGQGTQVTVSS | high polyreactivity
27 | QVQLVESAGGLVQAGGSLRLSCAASGFTFRYYAMGWYRQAPGKERELVAAISWSGGRTYYADSVKWRLTISRDNANNTVYLQMNSLKPEDTADYYCAADGYQYFYGDFDYWGQGTQVTVSS | high polyreactivity
28 | QVQLVESAGGLVQAGGSLRLSCAASGFTFYFYAMGWSRQAPGKERELVAAISRSGSRTYYADSVKGRFTISRDNAKNTVYLQMNSLKPEDTAVYYCARVRPRGLYFVLHYDYWGQGTQVTVSS | high polyreactivity
29 | QVQLVESAGGLVQAGGSLRLSCAASGFTFYYYTMGWYRQAPGKETELVAAITWRGGSTNYADSVKGRFTISRDNAKNTVYLQMNSLKPEDTAVYYCAAVSYWFWPGMDYWGQGTQVTVSS | low polyreactivity
30 | QVQLVESAGGLVQAGGSLRLSCAASGGIFFSYAMGWYRQAPGKERELVAAIRTNGGTTYYADSVKGRFTISRDNAKNNVYLQMNSLTPEDTAVYYCASLPGGYYDRGEYDYWGQGTQVTVSS | low polyreactivity
31 | QVQLVESAGGLVQAGGSLRLSCAASGIIFPVYAMGWYRQAPGKERELVAAITSSGGSTYYADSVKGRFTISRDNAKNTVYLQMNSLKPEDTAVYYFAAVRKSRFDYGGQGTQVTVSS | high polyreactivity
32 | QVQLVESAGGLVQAGGSLRLSCAASGIIFTSNTMGWYRQAPGKEREFVASINWNGSSTYADSVKGRFTISRDNAKNTVYLQMNSLKPEDTAVYYCAADWLGYQYGYWGQGTQVTVSS | low polyreactivity
33 | QVQLVESAGGLVQAGGSLRLSCAASGLIFRFNAMGWYRQAPGKERELVAAITRAGSTYYADSVKGRFTISRDNAKKTVYLQMNSLKPEDTAVYYCAAGQYRLPQRGYGYWGQGTQVTVSS | high polyreactivity
34 | QVQLVESAGGLVQAGGSLRLSCAASGLTFPPNAMGWYRHAPGKERELVADSGGSTNYADSVKGRFTISRDNAKNTVYLQMNSLKPEDTAVYYCAAPPYSDGQWDDYWGQGSQVTVSS | low polyreactivity
35 | QVQLVESAGGLVQAGGSLRLSCAASGNTFPPYPMGWYRQAPGKERELVAAISCGGRTYYADSVKGRFTISRDNAKNTVYLQMNSLKPEDTAVYYCAVYVPNYYSYHYDYWGQGTQVTVSS | high polyreactivity
36 | QVQLVESAGGLVQAGGSLRLSCAASGRIFARYAMGWYRQAPGKVRELVAAISASGGSTYYADSVKGRFTISRDNAKYTVYLQMNSLKPEDTAVYYCAARFSYPYRIAFNYWGQGTQVTVSS | low polyreactivity
37 | QVQLVESAGGLVQAGGSLRLSCAASGRIFGYYAMGWYRQAPGKERELVARISRGGSTYYADSVKGRFTISRDNAMNTVYLQMTSLKPEDTGVYYCAATRSGYTSYTDDSWGQGTQVTVSS | high polyreactivity
38 | QVQLVESAGGLVQAGGSLRLSCAASGRIFHKNAMGWYRQAPGKERELVATINYGGSSTYYADSVKGRFTISRDNAKNTVYLQMNSLKPEDTAVYYCAAAPEYLTDHAYWGQGTQVTVSS | low polyreactivity
39 | QVQLVESAGGLVQAGGSLRLSCAASGRIFSHYAMGWYRQAPGKERELVAAITSSGGSTSYADSVKGRFTISRDNAKNTVYLQMNSLKPEDTAVYYCAAEDTQVRRSPVRPLEDYWGQGTQVTVSS | low polyreactivity
40 | QVQLVESAGGLVQAGGSLRLSCAASGRIFYGNAMGWYRQAPGKERELVAAISKRGGSTHYAASVKGRFTISRDNAKNTVYLQMNSLKPEDTAVYYCATDSYYVGAVHYYYWGQGTQVTVSS | high polyreactivity
41 | QVQLVESAGGLVQAGGSLRLSCAASGRIFYLYAMGWYRQAPGQERELVARITSGSGTYYADSVKGRFTISRDNAKNTVYLQMNSLKPEDTGVYYCAAREPGVCFVGHYTGLDYWGQGTQVTVSS | low polyreactivity
